Results as given in paper PMC4735607, “Reversal of axonal growth defects in an extraocular fibrosis model by engineering the kinesin–microtubule interface” (Nature Communications, 2016).

Key:
Settings in all cases: both partners purified
[1] = target: T1, WT microtubules of recombinant human TUBA1B (K40R, treated as WT) and TUBB3 tubulin (human, UniProt P68363-1 1-451; Q13509-1 1-450, K40R); experiment: co-sedimentation; nucleotide-free state: 0.1 µM BG-549-labelled HK349 with varying concentrations of MTs; x2 MA buffer, 1 mg/ml casein, 40 µM taxol, 1 U/ml apyrase; fraction of HK349 in the MT pellet against total MT concentration fitted to a hyperbola
T1 construct: beta3-tubulin TUBB3, Homo sapiens, NP_006077; Polymer of alpha/beta heterodimers, taxol-stabilised; Each tag is joined through a GGSGG linker; also called WT MT; WT MTs; source: HighFive insect cells (baculovirus), purified (DEAE Sepharose, TALON, anti-FLAG resin), polymerized with taxol
T1 sequence (P68363 whole entry K40R, chain 1 of 2): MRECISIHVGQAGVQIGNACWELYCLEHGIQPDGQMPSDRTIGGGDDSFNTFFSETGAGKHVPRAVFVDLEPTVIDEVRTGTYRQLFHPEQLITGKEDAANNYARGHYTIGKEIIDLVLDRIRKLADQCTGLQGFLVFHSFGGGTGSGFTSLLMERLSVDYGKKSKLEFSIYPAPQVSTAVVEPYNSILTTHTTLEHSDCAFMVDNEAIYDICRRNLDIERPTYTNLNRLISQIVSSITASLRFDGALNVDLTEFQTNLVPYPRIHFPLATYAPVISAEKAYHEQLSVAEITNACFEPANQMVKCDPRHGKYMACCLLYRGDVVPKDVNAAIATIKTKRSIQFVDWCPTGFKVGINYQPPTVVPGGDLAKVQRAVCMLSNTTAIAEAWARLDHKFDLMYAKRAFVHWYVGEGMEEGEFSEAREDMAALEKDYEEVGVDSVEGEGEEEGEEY
T1 sequence (Q13509 whole entry, chain 2 of 2): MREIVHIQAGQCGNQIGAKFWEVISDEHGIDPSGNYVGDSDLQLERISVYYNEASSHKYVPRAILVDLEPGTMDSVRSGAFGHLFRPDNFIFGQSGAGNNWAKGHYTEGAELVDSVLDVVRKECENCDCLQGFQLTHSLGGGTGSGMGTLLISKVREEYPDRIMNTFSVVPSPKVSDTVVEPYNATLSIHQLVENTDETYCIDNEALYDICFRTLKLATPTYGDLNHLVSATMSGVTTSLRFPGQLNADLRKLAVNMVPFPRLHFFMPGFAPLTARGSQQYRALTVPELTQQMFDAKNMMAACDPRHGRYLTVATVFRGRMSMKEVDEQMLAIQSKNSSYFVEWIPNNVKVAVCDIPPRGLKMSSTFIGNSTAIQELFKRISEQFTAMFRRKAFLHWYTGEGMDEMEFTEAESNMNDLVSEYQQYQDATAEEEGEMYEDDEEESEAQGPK

[2] = target: T2, beta-R262A microtubules of recombinant human TUBA1B (K40R) and TUBB3 R262A tubulin (human, UniProt P68363-1 1-451; Q13509-1 1-450, K40R | R262A); experiment: as above
T2 construct: beta3-tubulin TUBB3, Homo sapiens, NP_006077, with R262A; Polymer of alpha/beta heterodimers, taxol-stabilised; Each tag is joined through a GGSGG linker; also called β-R262A; R262A MT; source: HighFive insect cells (baculovirus), purified (DEAE Sepharose, TALON, anti-FLAG resin), polymerized with taxol
T2 sequence (P68363 whole entry K40R, chain 1 of 2): as the sequence (P68363 whole entry K40R, chain 1 of 2) above
T2 sequence (Q13509 whole entry R262A, chain 2 of 2): as the sequence (Q13509 whole entry, chain 2 of 2) above, with R262A counted along it

[3] = target: T1, WT microtubules of recombinant human …; experiment: co-sedimentation; ADP state: 0.1 µM BG-549-labelled HK349 with varying concentrations of MTs; x2 MA buffer, 1 mg/ml casein, 40 µM taxol, 1 mM ADP and 1 U/ml hexokinase; fraction of HK349 in the MT pellet against total MT concentration fitted to a hyperbola
[4] = target: T2, beta-R262A microtubules of recombinant …; experiment: as above
[5] = target: T1, WT microtubules of recombinant human …; experiment: co-sedimentation; AMPPNP state: 0.1 µM BG-549-labelled HK349 with varying concentrations of MTs; x2 MA buffer, 1 mg/ml casein, 40 µM taxol, 1 mM AMPPNP and 1 U/ml apyrase; fraction of HK349 in the MT pellet against total MT concentration fitted to a hyperbola
[6] = target: T2, beta-R262A microtubules of recombinant …; experiment: as above

B1: WT KIF5B, single-headed (monomeric) construct HK349 (K349-SNAP-His) (domain or fragment, human, UniProt P33176 1-349, looked up)
chain: MADLAECNIKVMCRFRPLNESEVNRGDKYIAKFQGEDTVVIASKPYAFDRVFQSSTSQEQVYNDCAKKIVKDVLEGYNGTIFAYGQTSSGKTHTMEGKLHDPEGMGIIPRIVQDIFNYIYSMDENLEFHIKVSYFEIYLDKIRDLLDVSKTNLSVHEDKNRVPYVKGCTERFVCSPDEVMDTIDEGKSNRHVAVTNMNEHSSRSHSIFLINVKQENTQTEQKLSGKLYLVDLAGSEKVSKTGAEGAVLDEAKNINKSLSALGNVISALAEGSTYVPYRDSKMTRILQDSLGGNCRTTIVICCSPSSYNESETKSTLLFGQRAKTIKNTVCVNVELTAEQWKKKYEKEKE
modifications: fluorescent dye BG-549 (SNAP-surface 549) on the SNAP tag
notes: kinesin heavy chain KIF5B, human, residues 1-349; also called minimal motor; not shown: SNAP tag, C-terminal, kept
Kd [1]: 12 nM | Kd [2]: 860 nM | Kd [3]: 6500 nM | Kd [4]: 36000 nM | Kd [5]: 29 nM | Kd [6]: 2500 nM

B2: D279R KIF5B, single-headed (monomeric) construct HK349 (domain or fragment, human, UniProt P33176 1-349, looked up)
chain: MADLAECNIKVMCRFRPLNESEVNRGDKYIAKFQGEDTVVIASKPYAFDRVFQSSTSQEQVYNDCAKKIVKDVLEGYNGTIFAYGQTSSGKTHTMEGKLHDPEGMGIIPRIVQDIFNYIYSMDENLEFHIKVSYFEIYLDKIRDLLDVSKTNLSVHEDKNRVPYVKGCTERFVCSPDEVMDTIDEGKSNRHVAVTNMNEHSSRSHSIFLINVKQENTQTEQKLSGKLYLVDLAGSEKVSKTGAEGAVLDEAKNINKSLSALGNVISALAEGSTYVPYRRSKMTRILQDSLGGNCRTTIVICCSPSSYNESETKSTLLFGQRAKTIKNTVCVNVELTAEQWKKKYEKEKE
modifications: fluorescent dye BG-549 (SNAP-surface 549) on the SNAP tag
notes: kinesin heavy chain KIF5B, human, residues 1-349, with D279R in the L12 loop; also called HK349 D279R; not shown: SNAP tag, C-terminal, kept
Kd [1]: 12 nM | Kd [2]: 120 nM | Kd [3]: 12000 nM | Kd [4]: 14000 nM | Kd [5]: 10 nM | Kd [6]: 50 nM
